Reference: the Human Domainome abundance scans (Beltran et al. 2025)
± gives the uncertainty stated by the source.

B1: Ankyrin repeat and SAM domain-containing protein 6, residues 774 to 836; numbered along this chain, Q68DC2 (parent)
chain: DEDELTGILKKLSLEKYQPIFEEQEVDMEAFLTLTDGDLKELGIKTDGSRQQILAAISELNAG

Variants of: B1
Assay: abundance fitness (aPCA) (normalised: wild type 0, dead -1); higher = more abundant; growth selection in yeast, the domain comes from the species named
Conditions: Homo sapiens

Variant	abundance fitness
DEDELTGILKKLSLEKYQPIFEEQEVDMEAFLTLTDGDLKELGIKTDGSRQQILAAISEMNAG	-0.054 ± 0.057
DEDELTGILKKLSLEKYQPIFEEQEVDMEAFLTLTDGDLKELGIKTDGSRQQILAAISENNAG	-0.286 ± 0.15
DEDELTGILKKLSLEKYQPIFEEQEVDMEAFLTLTDGDLKELGIKTDGSRQQILAAISERNAG	-0.108 ± 0.039
DEDELTGILKKLSLEKYQPIFEEQEVDMEAFLTLTDGDLKELGIKTDGSRQQILAAISEGNAG	-0.301 ± 0.036
DEDELTGILKKLSLEKYQPIFEEQEVDMEAFLTLTDGDLKELGIKTDGSRQQILAAISEDNAG	-0.359 ± 0.067
DEDELTGILKKLSLEKYQPIFEEQEVDMEAFLTLTDGDLKELGIKTDGSRQQILAAISEINAG	-0.073 ± 0.073
DEDELTGILKKLSLEKYQPIFEEQEVDMEAFLTLTDGDLKELGIKTDGSRQQILAAISEANAG	-0.147 ± 0.041
DEDELTGILKKLSLEKYQPIFEEQEVDMEAFLTLTDGDLKELGIKTDGSRQQILAAISEFNAG	-0.04 ± 0.062
DEDELTGILKKLSLEKYQPIFEEQEVDMEAFLTLTDGDLKELGIKTDGSRQQILAAKSELNAG	-0.349 ± 0.081
DEDELTGILKKLSLEKYQPIFEEQEVDMEAFLTLTDGDLKELGIKTDGSRQQILAAHSELNAG	-0.254 ± 0.14
DEDELTGILKKLSLEKYQPIFEEQEVDMEAFLTLTDGDLKELGIKTDGSRQQILAACSELNAG	-0.277 ± 0.051
DEDELTGILKKLSLEKYQPIFEEQEVDMEAFLTLTDGDLKELGIKTDGSRQQILAAQSELNAG	-0.116 ± 0.062
DEDELTGILKKLSLEKYQPIFEEQEVDMEAFLTLTDGDLKELGIKTDGSRQQILAAMSELNAG	-0.539 ± 0.051
DEDELTGILKKLSLEKYQPIFEEQEVDMEAFLTLTDGDLKELGIKTDGSRQQILAAVSELNAG	-0.206 ± 0.054
DEDELTGILKKLSLEKYQPIFEEQEVDMEAFLTLTDGDLKELGIKTDGSRQQILAALSELNAG	-0.257 ± 0.041
DEDELTGILKKLSLEKYQPIFEEQEVDMEAFLTLTDGDLKELGIKTDGSRQQILAATSELNAG	-0.221 ± 0.06
DEDELTGILKKLSLEKYQPIFEEQEVDMEAFLTLTDGDLKELGIKTDGSRQQILAANSELNAG	-0.437 ± 0.073
DEDELTGILKKLSLEKYQPIFEEQEVDMEAFLTLTDGDLKELGIKTDGSRQQILAAGSELNAG	-0.37 ± 0.038
DEDELTGILKKLSLEKYQPIFEEQEVDMEAFLTLTDGDLKELGIKTDGSRQQILAAASELNAG	-0.248 ± 0.052
DEDELTGILKKLSLEKYQPIFEEQEVDMEAFLTLTDGDLKELGIKTDGSRQQILAAESELNAG	-0.414 ± 0.046
DEDELTGILKKLSLEKYQPIFEEQEVDMEAFLTLTDGDLKELGIKTDGSRQQILAAYSELNAG	-0.696 ± 0.087
DEDELTGILKKLSLEKYQPIFEEQEVDMEAFLTLTDGDLKELGIKTDGSRQQILAAWSELNAG	-0.675 ± 0.086

Variant	abundance fitness
DEDELTGILKKLSLEKYQPIFEEQEVDMEAFLTLTDGDLKELGIKTDGSRQQILAASSELNAG	-0.282 ± 0.051
DEDELTGILKKLSLEKYQPIFEEQEVDMEAFLTLTDGDLKELGIKTDGSRQQILAAFSELNAG	-0.675 ± 0.088
DEDELTGILKKLSLEKYQPIFEEQEVDMEAFLTLTDGDLKELGIKTDGSRQQILAAISNLNAG	-0.212 ± 0.17
DEDELTGILKKLSLEKYQPIFEEQEVDMEAFLTLTDGDLKELGIKTDGSRQQILAAISTLNAG	-0.106 ± 0.069
DEDELTGILKKLSLEKYQPIFEEQEVDMEAFLTLTDGDLKELGIKTDGSRQQILAAISILNAG	-0.505 ± 0.1
DEDELTGILKKLSLEKYQPIFEEQEVDMEAFLTLTDGDLKELGIKTDGSRQQILAAISWLNAG	-0.35 ± 0.044
DEDELTGILKKLSLEKYQPIFEEQEVDMEAFLTLTDGDLKELGIKTDGSRQQILAAISQLNAG	-0.097 ± 0.061
DEDELTGILKKLSLEKYQPIFEEQEVDMEAFLTLTDGDLKELGIKTDGSRQQILAAISCLNAG	-0.272 ± 0.059
DEDELTGILKKLSLEKYQPIFEEQEVDMEAFLTLTDGDLKELGIKTDGSRQQILAAISDLNAG	-0.078 ± 0.079
DEDELTGILKKLSLEKYQPIFEEQEVDMEAFLTLTDGDLKELGIKTDGSRQQILAAISPLNAG	-0.614 ± 0.073
DEDELTGILKKLSLEKYQPIFEEQEVDMEAFLTLTDGDLKELGIKTDGSRQQILAAISVLNAG	-0.267 ± 0.051
DEDELTGILKKLSLEKYQPIFEEQEVDMEAFLTLTDGDLKELGIKTDGSRQQILAAISYLNAG	0.02 ± 0.11
DEDELTGILKKLSLEKYQPIFEEQEVDMEAFLTLTDGDLKELGIKTDGSRQQILAAISHLNAG	0.047 ± 0.071
DEDELTGILKKLSLEKYQPIFEEQEVDMEAFLTLTDGDLKELGIKTDGSRQQILAAISALNAG	0 ± 0.055
DEDELTGILKKLSLEKYQPIFEEQEVDMEAFLTLTDGDLKELGIKTDGSRQQILAAISMLNAG	-0.169 ± 0.065
DEDELTGILKKLSLEKYQPIFEEQEVDMEAFLTLTDGDLKELGIKTDGSRQQILAAISKLNAG	0.02 ± 0.071
DEDELTGILKKLSLEKYQPIFEEQEVDMEAFLTLTDGDLKELGIKTDGSRQQILAAISSLNAG	-0.113 ± 0.046
DEDELTGILKKLSLEKYQPIFEEQEVDMEAFLTLTDGDLKELGIKTDGSRQQILAYISELNAG	-0.109 ± 0.053
DEDELTGILKKLSLEKYQPIFEEQEVDMEAFLTLTDGDLKELGIKTDGSRQQILAWISELNAG	-0.708 ± 0.064
DEDELTGILKKLSLEKYQPIFEEQEVDMEAFLTLTDGDLKELGIKTDGSRQQILAVISELNAG	-0.133 ± 0.043
DEDELTGILKKLSLEKYQPIFEEQEVDMEAFLTLTDGDLKELGIKTDGSRQQILATISELNAG	-0.113 ± 0.059
